In one assay the target is Adalimumab. As to the kind of experiment: SPR. Background: SPR reads the build-up and loss of mass on a sensor chip optically.
Assay [1] has as its target Adalimumab–pM440 complex (Mycoplasma genitalium) (UniProt P47523). Kind of assay: SPR.
For assay [2] the target is unchanged. As to the kind of experiment: SPR; single-cycle kinetic titration of TNFα on Adalimumab or on the Adalimumab-pM440 complex.

Data on two substances can be found in article PMC12560131.

Usually Kd stands for the equilibrium constant for the complex coming apart. A high value points to lower affinity. Broadly, the koff is the rate constant with which the complex falls apart. By kon is commonly meant a measure of how fast the partners come together.

Substance “protein M440 (from UniProt P47523 1-440) (domain or fragment)” displayed a Kd with Adalimumab below 0.15 nM.

Turning to “TNFα (from UniProt P01375 1-233) (ligand)”, in assay [1], the fold decrease in affinity against Adalimumab without pM440 was 3 fold, the dissociation rate constant (koff) was 0.00046 s⁻¹ and the on-rate constant (kon) amounted to 160000 M⁻¹ s⁻¹. In addition, the Kd in assay [2] turned out to be 2.94 nM.
